Data from patent publication US6919086B1, “Graminae pollen allergen mutants for specific immunotherapy, and production and use of the same” (Merck Patent Gesellschaft mit, priority 1997, dated 2005).
Entries after “also recorded” stand apart in the source; their conditions may differ. Like-named read-outs stand apart in the source and are kept apart here.

What was measured:
[1] = system: IgE antibodies of allergic patients; experiment: EAST inhibition test (IgE reactivity / allergenicity); assay type: binding, human; details: for IC50: read-out: Inhibition value 50% (concentration of the inhibitor at 50% inhibition); for Allergenic potency (Prel) 25%: relative to native Phl p 5b at 25% inhibition; for Allergenic potency (Prel) 50%: relative to native Phl p 5b at 50% inhibition
Protocol: The effects of the induced mutations on the allergenicity, i.e. the ability to bind to the IgE antibodies of allergic patients, of the modified recombinant allergens is determined qualitatively and quantitatively by means of the EAST inhibition test. […] The extent of the immunochemical relatedness (cross reactivity) can also be quantified. This EAST inhibition test only takes the reaction with IgE antibodies into account.
The binding of the allergens by the IgE antibodies is the basic prerequisite for the allergen-specific activation of the effector cells (mast cells, basophils, inter alia) in type I allergy. The allergen-specific inhibition of the enzyme/allergen sorbent test (EAST) is the best means for qualitatively and quantitatively recording the binding of the allergens to IgE anti-bodies. The EAST inhibition test is carried out as follows. Microtitre plates are coated with allergen (natural or recombinant Ph1 p 5 or Ph1 p 5b) (1 μg/ml). After the unbound allergen molecules have been removed by washing, non-specific plastic binding sites are blocked with bovine serum albumin (0.5%). […] from allergic patients, as a representative pool of 10-30 donors or as an individual serum, is incubated, in a suitable dilution, with the allergen-coated microtritre plates. The bound allergen-specific IgE antibodies are quantified using enzyme-coupled anti-IgE antibodies (e.g. alk. phosphatase-a-IgE antibodies). This binding is inhibited by soluble allergen or the substance to be tested (allergen mutants) in dependence on the concentration. The inhibition curve obtained with the purified natural allergen Ph1 p 5b is used as the reference.

[2] = system: Phl p 5b-reactive T cell lines (TCLs) from allergic patients; experiment: Proliferative reaction of Phl p 5b-reactive oligoclonal T cell lines ([3H]-thymidine incorporation); assay type: cell-based, human
Protocol: In the second phase, oligoclonal T cell lines, which have been established by repeated stimulation with the relevant allergens, are employed for the testing. Once again, only those modified recombinant allergens which at least give rise to a stimulation index (SI) of 50% of the SI of the wild type are taken into consideration.
40 ml of heparinized blood were obtained from each patient. Peripheral mononuclear cells (PBMC) were then isolated from this blood sample by means of the customary method using density gradient centrifugation. Analogous cell isolations were carried out at a later stage when it was necessary to obtain irradiated autologous antigen-presenting cells (APC) for characterizing the TCL and TCC further. After the PBMC had been counted, TCL which reacted to group 5 allergens in vitro were established as follows and as has already been described in detail elsewhere (Lit. 1): in each well of 24-well microculture plates, from 1.5 to 2.0×10^6 PBMC in 1 ml of culture medium (UltraCulture) were stimulated for 7 days in the added presence of natural Phl p5 allergens (in each case 10 μg/well) which had been purified by immunoaffinity chromatography. A total of from 8 to 10 of these cultures were set up. The isolation of Phl p5 by means of immunoaffinity chromatography has been described in detail (Lit. 2). At the end of the 7 days of culture, IL-2 (from 10 to 20 IU/well) was added to the cell cultures for a further 5 to 7 days. All the individual cultures were then pooled and the T cell blasts were enriched by means of density gradient centrifugation; the TCL which were obtained were then tested in a specific lymphocyte proliferation test (see Lit. 1 as well). For this, 2×10^4/ml TCL blasts were in each case cultured with 5×10^4/ml irradiated autologous APCs in triplicate samples in 96-well microculture plates. 10-20 μg of Phl p5 allergen were added as the specific antigen stimulus. After 56 hours of incubation, ^3H-labelled thymidine (1 μCi/well) was pipetted into the microcultures. After a further 16 hours, the radioactivity which had been incorporated into the proliferating T cell blasts was measured in a beta counter (Matrix 96). The results were calculated, as the arithmetic mean of the multiple samples, in counts per minute (cpm). The criterion for the quality of the TCL was the stimulation index, which was obtained by relating the cpm values with Phl p5 addition to those without Phl p5 addition.
The oligoclonal T cell lines (TCLs) from 8 patients who were allergic to grass pollen (see Ex. 1) were established by repeated activation with natural Ph1 p 5b (a+b) or recombinant rPh1 p 5b or 5a+5b.
The proliferative reaction of these TCLs was tested using the rPh1 p 5b mutants (FIG. 10).

[3] = biological target: IgE antibodies of the allergic patient serum pool We 6/97; experiment: EAST inhibition, serum pool We 6/97
[4] = biological target: IgE antibodies of the individual allergic patient serum II/3; experiment: EAST inhibition, individual serum II/3
[5] = biological target: IgE antibodies of the individual allergic patient serum II/17; experiment: EAST inhibition, individual serum II/17
[6] = biological target: IgE antibodies of the individual allergic patient serum II/12; experiment: EAST inhibition, individual serum II/12
[7] = biological target: IgE antibodies of the allergic patient serum pool Bor 18/100 (20 donors); experiment: EAST inhibition, serum pool Bor 18/100
[8] = allergic patient serum pool Bor 18/100
[9] = allergic patient serum pool We 6/97
[10] = individual allergic patient serum II/3
[11] = individual allergic patient serum II/12
[12] = individual allergic patient serum II/17
[13] = primary stimulator n Phl p 5, secondary activator 0.3 μM
[14] = primary stimulator r Phl p 5b, secondary activator 0.3 μM

B1: rPhl p 5b deletion mutant DM3 (deletion A154-T177, A220T) (protein)
chain: ADAGYAPATPAAAGAAAGKATTEEQKLIEDINVGFKAAVAAAASVPAADKFKTFEAAFTSSSKAAAAKAPGLVPKLDAAYSVAYKAAVGATPEAKFDSFVASLTEALRVIAGALEVHAVKPVTEEPGMAKIPAGELQIIDKIDAAFKVAATAAGGAYDTYKCIPSLEAAVKQAYAATVAAAPQVKYAVFEAALTKTITAMSEVQKVSQPATGAATVAAGAATTAAGAASGAATVAAGGYKV
[1]; all serum pools and individual sera, Prel values
  Allergenicity / IgE reactivity, overall assessment (in words): marked reduction in allergenicity; also recorded: greatly reduced, it is still detectable
[1]; [8]
  Inhibition value 25% (concentration of the inhibitor at 25% inhibition): 1.2e-09 mol/L
  IC50: 4.1 µM
[1]; [9]
  Inhibition value 25% (concentration of the inhibitor at 25% inhibition): 5.1e-09 mol/L
  IC50: 0.029 µM
[1]; [10]
  Inhibition value 25% (concentration of the inhibitor at 25% inhibition): 1.1e-06 mol/L
  IC50: 32000 µM
[1]; [11]
  Inhibition value 25% (concentration of the inhibitor at 25% inhibition): 4.5e-09 mol/L
  IC50: 100 µM
[1]; [12]
  Inhibition value 25% (concentration of the inhibitor at 25% inhibition): 5.6e-09 mol/L
  IC50: 0.05 µM
[1]; individual serum II/3
  Allergenic potency (Prel) 25%: 0.0004
  Allergenic potency (Prel) 50%: 1.8 × 10^−7
[1]; individual serum II/12
  Allergenic potency (Prel) 25%: 0.012
  Allergenic potency (Prel) 50%: 5.7 × 10^−5
[1]; individual serum II/17
  Allergenic potency (Prel) 25%: 0.038
  Allergenic potency (Prel) 50%: 0.0005
[1]; serum pool Bor 18/100
  Allergenic potency (Prel) 25%: 0.028
  Allergenic potency (Prel) 50%: 0.0001
[1]; serum pool We 6/97
  Allergenic potency (Prel) 25%: 0.099
  Allergenic potency (Prel) 50%: 0.0020
[1]; serum pool Bor 18/100 (20 donors), FIG. 1
  EAST inhibition curve / inhibitory effect (in words): markedly decreased inhibitory effect
[1]; serum pool We 6/97 and individual sera II3, II12, II17, FIGS. 2-5
  Allergenicity from EAST inhibition curves (in words): greatly reduced allergenicity
[2]; TCLs from 8 patients allergic to grass pollen
  Proliferative reaction of TCLs (in words): strong specific stimulation with most of the TCLs
[2]; [13]
  Incorporation of [3H]-thymidine into TCL 2 Eic (stimulation index class): + (1-2 (+))
  Incorporation of [3H]-thymidine into TCL 4 Mer (stimulation index class): ++ (5-10 (++))
[2]; primary stimulator r Phl p 5, secondary activator 0.3 μM
  Incorporation of [3H]-thymidine into TCL 5 17.4 (stimulation index class): ++ (5-10 (++))
[2]; primary stimulator r Phl p 5a, r Phl p 5b, secondary activator 0.3 μM
  Incorporation of [3H]-thymidine into TCL 6 Mah (stimulation index class): +++ (>10 (+++))
[2]; [14]
  Incorporation of [3H]-thymidine into TCL 7 19.2 (stimulation index class): +++ (>10 (+++))
  Incorporation of [3H]-thymidine into TCL 8 20.1 (stimulation index class): +++ (>10 (+++))
[3]
  IC50: 0.029 µM
  allergenic potency (Prel) at 25% inhibition (relative to native Phl p 5b): 0.099
  allergenic potency (Prel) at 50% inhibition (relative to native Phl p 5b): 0.002
  inhibition value (inhibitor concentration at 25% inhibition): 5.1e-09 mol/L
[4]
  IC50: 32000 µM
  allergenic potency (Prel) at 25% inhibition (relative to native Phl p 5b): 0.0004
  allergenic potency (Prel) at 50% inhibition (relative to native Phl p 5b): 1.8e-07
  inhibition value (inhibitor concentration at 25% inhibition): 1.1e-06 mol/L
[5]
  IC50: 0.05 µM
  allergenic potency (Prel) at 25% inhibition (relative to native Phl p 5b): 0.038
  allergenic potency (Prel) at 50% inhibition (relative to native Phl p 5b): 0.0005
  inhibition value (inhibitor concentration at 25% inhibition): 5.6e-09 mol/L
[6]
  IC50: 100 µM
  allergenic potency (Prel) at 25% inhibition (relative to native Phl p 5b): 0.012
  allergenic potency (Prel) at 50% inhibition (relative to native Phl p 5b): 5.7e-05
  inhibition value (inhibitor concentration at 25% inhibition): 4.5e-09 mol/L
[7]
  IC50: 4.1 µM
  allergenic potency (Prel) at 25% inhibition (relative to native Phl p 5b): 0.028
  allergenic potency (Prel) at 50% inhibition (relative to native Phl p 5b): 0.0001
  inhibition value (inhibitor concentration at 25% inhibition): 1.2e-09 mol/L
